Reference: publication PMC3608519 (Journal of immunology (Baltimore, Md. : 1950), 2013)

Molecular target: RSV fusion (F) protein ectodomain (Human respiratory syncytial virus; …, UniProt P03420)
Test: SPR

Sequence of RSV fusion (F) protein ectodomain (P03420 26-524): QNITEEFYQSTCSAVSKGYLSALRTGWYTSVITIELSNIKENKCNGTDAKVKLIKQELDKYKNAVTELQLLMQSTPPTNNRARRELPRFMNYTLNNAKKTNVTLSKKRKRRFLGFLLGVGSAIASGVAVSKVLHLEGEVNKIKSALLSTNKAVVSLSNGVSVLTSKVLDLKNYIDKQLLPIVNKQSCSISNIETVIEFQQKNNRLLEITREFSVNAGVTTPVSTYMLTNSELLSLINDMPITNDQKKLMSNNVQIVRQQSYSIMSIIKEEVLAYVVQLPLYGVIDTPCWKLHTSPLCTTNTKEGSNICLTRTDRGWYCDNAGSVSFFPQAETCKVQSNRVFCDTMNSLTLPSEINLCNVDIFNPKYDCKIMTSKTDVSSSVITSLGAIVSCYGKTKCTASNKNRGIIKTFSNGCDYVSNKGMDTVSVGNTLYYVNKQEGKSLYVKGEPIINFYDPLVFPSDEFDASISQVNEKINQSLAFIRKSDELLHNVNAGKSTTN

B1: Fab19 (fully matured, wild-type) (Fab, V domains shown)
VH: VQLLEVESGGGLRPGGSLRLSCAASGTTLSGYTMHWVRQAPGKGLEWVSSITGGSNFINYSDSVKGRFTISRDNAKNSLYLQMNSLTAEDTAVYYCATAPIAPPYFDHWGQGTLVTVSS
VL: ELTQSPSSLSASVGDRVTITCRATQSVSNFLNWYQQKPGEAPTLLIYDASTSQSGVPSRFSGSGSGMDFSLTISSLQPEDLAMYYCQASINTPLFGGGTRIDMR
For B1, the koff was 0.0057 s⁻¹.
